We go through 3 molecules from US20120027774A1 (DYAX, published 2012).

For assay [1], the target named is human MMP-9 (human, UniProt P14780 107-707, limits assumed). Nature of the assay: cell-based or functional assay.
Assay [2] addresses T1, Human MMP-9 catalytic domain (BIOMOL, SE-244) (human, UniProt P14780 107-445, limits assumed). Nature of the assay: cell-based or functional assay.
The target in assay [3] is T1, Human MMP-9 catalytic domain (BIOMOL, …). Nature of the assay: cell-based or functional assay. This is another data set of the same source.
Assay [4] has the same target. Nature of the assay: enzyme inhibition, competitive model; intercept of IC50 against substrate concentration (3 to 15 µM), 0.6 nM enzyme. The procedure:
Experiments were performed to characterize the interaction of the M0166-F10 hIgG1 with human MMP-9. The Ki was measured and the inhibition mechanism was determined.
Materials: [0427] Substrate: Mca-KPLGL-Dap(Dnp)-AR-NH₂ (M-2350) from BACHEM (521575). A 10 mM stock solution was prepared in DMSO. [0428] Human MMP-9 catalytic domain (BIOMOL, SE-244), stock solution at 0.24 mg/ml. [0429] M0166-F10 hIgG1: 2551-095. Dialysed against TCN. Stock solution at 0.226 mg/ml. [0430] Experiments were performed in TCNB: 50 mM Tris/HCl, 10 mM CaCl₂, 150 mM NaCl, 0.05% Brij 35, pH 7.5. [0431] 96-well black plates from Perkin Elmer (6005270). [0432] Spectramax M2e to measure fluorescence emission of the substrate upon hydrolysis (temperature control set at 30° C.; λexc=328 nm and λₑₘ=393 nm).
Procedure: [0434] 90 μl of the enzyme (final concentration=0.6 nM) was preincubated with 90 μl of various concentrations (0-100 nM final) of M0166-F10 for 1.5 h at 30° C. 20 μl the substrate was then added to a final concentration ranging from 3 to 15 μM, and initial rates were recorded. [0435] Each data point was measured in triplicate, and initial rates were averaged. […] Averaged initial rates were plotted against the M0166-F10 concentration for each substrate concentration, and IC₅₀'s were calculated using the following equation: […]

The target is the same in assay [5]. Nature of the assay: cell-based or functional assay. This is another data set of the same source.
Assay [6] has the same target. Nature of the assay: cell-based or functional assay. The source holds these as a separate data set.
Assay [7] has as its target T2, human MMP-7 (human, UniProt P09237 95-267).
T2 sequence (looked up): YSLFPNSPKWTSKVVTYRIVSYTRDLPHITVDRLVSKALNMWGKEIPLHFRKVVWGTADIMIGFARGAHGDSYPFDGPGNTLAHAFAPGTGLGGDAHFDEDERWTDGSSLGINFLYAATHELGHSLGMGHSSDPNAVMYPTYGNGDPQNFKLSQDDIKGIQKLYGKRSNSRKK
Nature of the assay: cell-based or functional assay.

Assay [8] has as its target human MMP-12 (human, UniProt P39900 106-268, limits assumed). Nature of the assay: cell-based or functional assay.
In assay [9] the target is human MMP-14 (human, UniProt P50281 112-284, limits assumed). Nature of the assay: cell-based or functional assay.
Assay [10] concerns the target human MMP-10 (human, UniProt P09238 99-271, limits assumed). Nature of the assay: cell-based or functional assay.
Assay [11] deals with mouse MMP-9 (mouse, UniProt P41245 20-730, limits assumed). Nature of the assay: cell-based or functional assay.
Assay [12] addresses human MMP-8 (human, UniProt P22894 100-262, limits assumed). Nature of the assay: cell-based or functional assay.
The target of assay [13] is mouse MMP-2 (mouse, UniProt P33434 30-662, limits assumed). Nature of the assay: cell-based or functional assay.
The target of assay [14] is human MMP-3 (human, UniProt P08254 100-272, limits assumed). Nature of the assay: cell-based or functional assay.
The target of assay [15] is human MMP-2 (human, UniProt P08253 110-452, limits assumed). Nature of the assay: cell-based or functional assay.
Assay [16] has as its target human MMP-13 (human, UniProt P45452 104-274). Nature of the assay: cell-based or functional assay.
Assay [17] addresses T3, human MMP-1 (human, UniProt P03956 100-269, limits assumed).
T3 sequence (looked up): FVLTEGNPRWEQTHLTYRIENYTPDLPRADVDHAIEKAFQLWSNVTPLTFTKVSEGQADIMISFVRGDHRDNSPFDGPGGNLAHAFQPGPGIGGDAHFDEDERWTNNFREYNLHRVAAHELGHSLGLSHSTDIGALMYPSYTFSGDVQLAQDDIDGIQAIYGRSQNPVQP
Nature of the assay: cell-based or functional assay.

T1 sequence (P14780 107-445 limits assumed): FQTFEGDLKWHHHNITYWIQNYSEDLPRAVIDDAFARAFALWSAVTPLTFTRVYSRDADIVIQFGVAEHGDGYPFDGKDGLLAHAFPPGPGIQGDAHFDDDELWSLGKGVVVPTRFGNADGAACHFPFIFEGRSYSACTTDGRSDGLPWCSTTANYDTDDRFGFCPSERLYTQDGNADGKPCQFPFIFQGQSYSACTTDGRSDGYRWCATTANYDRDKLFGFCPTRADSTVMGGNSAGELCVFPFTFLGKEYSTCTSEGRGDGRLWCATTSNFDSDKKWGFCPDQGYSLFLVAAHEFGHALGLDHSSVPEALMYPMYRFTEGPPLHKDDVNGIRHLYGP
Sequence of human MMP-9 (P14780 107-707 limits assumed): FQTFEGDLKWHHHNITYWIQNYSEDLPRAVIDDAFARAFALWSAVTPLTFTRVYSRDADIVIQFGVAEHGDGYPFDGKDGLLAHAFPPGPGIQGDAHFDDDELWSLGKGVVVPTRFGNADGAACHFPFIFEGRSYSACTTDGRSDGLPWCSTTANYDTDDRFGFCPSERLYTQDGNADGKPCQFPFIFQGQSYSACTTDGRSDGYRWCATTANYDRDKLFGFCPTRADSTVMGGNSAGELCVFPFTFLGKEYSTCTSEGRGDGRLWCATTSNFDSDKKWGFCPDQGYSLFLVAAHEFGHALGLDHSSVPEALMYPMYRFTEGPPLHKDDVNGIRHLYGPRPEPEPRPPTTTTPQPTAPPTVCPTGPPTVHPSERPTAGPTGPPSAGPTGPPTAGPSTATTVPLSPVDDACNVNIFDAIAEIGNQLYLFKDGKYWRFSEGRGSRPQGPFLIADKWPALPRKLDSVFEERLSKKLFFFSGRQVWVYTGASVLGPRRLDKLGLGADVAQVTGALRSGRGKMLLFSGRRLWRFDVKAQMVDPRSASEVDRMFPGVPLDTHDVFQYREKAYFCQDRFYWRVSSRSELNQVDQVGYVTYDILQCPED
Sequence of human MMP-8 (P22894 100-262 limits assumed): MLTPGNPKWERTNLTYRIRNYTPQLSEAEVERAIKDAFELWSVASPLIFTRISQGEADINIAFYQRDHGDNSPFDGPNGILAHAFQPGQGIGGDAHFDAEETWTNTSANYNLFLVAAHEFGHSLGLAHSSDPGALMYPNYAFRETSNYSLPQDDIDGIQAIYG
Sequence of human MMP-12 (P39900 106-268 limits assumed): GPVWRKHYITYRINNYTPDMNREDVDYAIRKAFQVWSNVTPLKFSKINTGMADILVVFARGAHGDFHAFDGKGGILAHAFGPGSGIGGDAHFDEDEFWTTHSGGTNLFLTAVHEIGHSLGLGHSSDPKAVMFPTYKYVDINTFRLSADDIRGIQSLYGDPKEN
Sequence of human MMP-10 (P09238 99-271 limits assumed): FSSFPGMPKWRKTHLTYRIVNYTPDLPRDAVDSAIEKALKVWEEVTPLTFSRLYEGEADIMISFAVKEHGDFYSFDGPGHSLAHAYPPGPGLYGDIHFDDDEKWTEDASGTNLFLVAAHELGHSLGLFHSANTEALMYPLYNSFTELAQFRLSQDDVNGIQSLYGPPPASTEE
Sequence of human MMP-2 (P08253 110-452 limits assumed): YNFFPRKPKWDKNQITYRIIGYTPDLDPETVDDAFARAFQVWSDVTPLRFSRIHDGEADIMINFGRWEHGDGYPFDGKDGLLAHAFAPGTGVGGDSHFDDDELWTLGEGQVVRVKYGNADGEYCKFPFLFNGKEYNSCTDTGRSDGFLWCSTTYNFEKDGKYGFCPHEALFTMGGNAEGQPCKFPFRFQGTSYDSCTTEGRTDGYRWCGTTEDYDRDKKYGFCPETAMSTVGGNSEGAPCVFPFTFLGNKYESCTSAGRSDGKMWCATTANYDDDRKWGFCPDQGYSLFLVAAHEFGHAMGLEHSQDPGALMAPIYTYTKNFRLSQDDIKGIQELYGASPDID
Sequence of mouse MMP-2 (P33434 30-662 limits assumed): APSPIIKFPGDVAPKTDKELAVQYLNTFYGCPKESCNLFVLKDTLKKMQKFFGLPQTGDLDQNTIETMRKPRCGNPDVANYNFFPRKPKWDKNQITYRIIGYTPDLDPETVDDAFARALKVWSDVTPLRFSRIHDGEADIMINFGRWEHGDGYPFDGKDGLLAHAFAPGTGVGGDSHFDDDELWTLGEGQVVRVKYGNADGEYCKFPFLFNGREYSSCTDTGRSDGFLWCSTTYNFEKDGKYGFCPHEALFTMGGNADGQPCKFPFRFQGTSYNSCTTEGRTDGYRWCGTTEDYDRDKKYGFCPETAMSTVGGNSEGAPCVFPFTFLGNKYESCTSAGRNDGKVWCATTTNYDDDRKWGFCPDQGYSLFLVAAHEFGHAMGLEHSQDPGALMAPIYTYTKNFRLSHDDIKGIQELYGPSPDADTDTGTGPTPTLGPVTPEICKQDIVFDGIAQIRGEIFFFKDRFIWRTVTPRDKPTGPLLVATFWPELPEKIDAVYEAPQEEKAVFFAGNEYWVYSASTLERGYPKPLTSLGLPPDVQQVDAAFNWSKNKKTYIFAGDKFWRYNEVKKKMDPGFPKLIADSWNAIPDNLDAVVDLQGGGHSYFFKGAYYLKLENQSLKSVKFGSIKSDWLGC
Sequence of mouse MMP-9 (P41245 20-730 limits assumed): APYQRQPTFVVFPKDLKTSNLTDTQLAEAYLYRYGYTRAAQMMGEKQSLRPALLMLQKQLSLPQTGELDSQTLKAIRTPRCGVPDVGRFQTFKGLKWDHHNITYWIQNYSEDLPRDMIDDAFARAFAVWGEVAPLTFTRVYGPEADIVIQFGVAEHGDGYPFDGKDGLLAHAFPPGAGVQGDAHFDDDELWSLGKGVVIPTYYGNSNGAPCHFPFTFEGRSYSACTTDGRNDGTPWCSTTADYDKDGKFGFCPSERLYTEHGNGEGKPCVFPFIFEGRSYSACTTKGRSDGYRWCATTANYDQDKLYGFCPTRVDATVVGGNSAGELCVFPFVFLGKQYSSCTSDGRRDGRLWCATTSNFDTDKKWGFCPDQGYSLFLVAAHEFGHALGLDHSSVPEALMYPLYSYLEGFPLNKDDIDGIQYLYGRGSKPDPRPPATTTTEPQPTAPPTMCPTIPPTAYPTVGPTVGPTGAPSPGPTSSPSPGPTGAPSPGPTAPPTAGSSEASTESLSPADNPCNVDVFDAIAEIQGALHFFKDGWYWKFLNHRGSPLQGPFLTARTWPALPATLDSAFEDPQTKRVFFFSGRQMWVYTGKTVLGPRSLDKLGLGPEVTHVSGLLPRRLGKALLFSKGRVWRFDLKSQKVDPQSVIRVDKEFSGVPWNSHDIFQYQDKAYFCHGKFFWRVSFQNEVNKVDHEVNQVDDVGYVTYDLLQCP
Sequence of human MMP-3 (P08254 100-272 limits assumed): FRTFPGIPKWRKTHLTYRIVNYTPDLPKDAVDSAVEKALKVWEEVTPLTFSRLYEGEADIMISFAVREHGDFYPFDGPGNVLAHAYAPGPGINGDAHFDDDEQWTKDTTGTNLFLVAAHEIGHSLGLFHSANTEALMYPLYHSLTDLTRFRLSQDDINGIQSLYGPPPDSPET

B1: 539A-M0166-F10 (format not stated: Fab or hIgG-1) (antibody, V domains shown)
VH: EVQLLESGGGLVQPGGSLRLSCAASGFTFSPYLMNWVRQAPGKGLEWVSSIYSSGGGTGYADSVKGRFTISRDNSKNTLYLQMNSLRAEDTAVYYCARIYHSSSGPFYGMDVWGQGTTVTVSS
VL: AQSELTQPPSASAAPGQRVTISCSGSSSNIGSNTVTWYQKLPGTAPKLLIYNNYERPSGVPARFSGSKSGTSASLAISGLQSEDEADYYCATWDDSLIANYVFGSGTKVTVLG
In the case of B1, the “IC50, inhibition of MMP-9 activity” value in assay [1] amounted to 1.8 nM.

B2: 539A-M0166-F10 hIgG1 (antibody, V domains shown)
VH: B1 VH
VL: QSELTQPPSASAAPGQRVTISCSGSSSNIGSNTVTWYQKLPGTAPKLLIYNNYERPSGVPARFSGSKSGTSASLAISGLQSEDEADYYCATWDDSLIANYVFGSGTKVTVLG
notes: Human IgG1; also called DL15
The Ki is the equilibrium dissociation constant of an inhibitor or competing ligand from its target. Read a low Ki as higher affinity. For B2, in assay [2], the “IC50 (inhibition of enzyme activity, 3 µM substrate M-2350, 0.6 nM enzyme); unit from the concentration axis [panel 3µM]” value was determined as 2.16 nM; the “IC50 (inhibition of enzyme activity, 5 µM substrate M-2350, 0.6 nM enzyme); unit from the concentration axis [panel 5µM]” value stood at 2.45 nM; the “IC50 (inhibition of enzyme activity, 7.5 µM substrate M-2350, 0.6 nM enzyme); unit from the concentration axis [panel 7.5µM]” value amounted to 4.22 nM; the “IC50 (inhibition of enzyme activity, 10 µM substrate M-2350, 0.6 nM enzyme); unit from the concentration axis [panel 10µM]” value worked out at 3.99 nM. In [2], the “IC50 (inhibition of enzyme activity, 12.5 µM substrate M-2350, 0.6 nM enzyme) [panel 12.5µM]” value came to 5.35 nM and the “IC50 (inhibition of enzyme activity, 15 µM substrate M-2350, 0.6 nM enzyme); unit from the concentration axis [panel 15µM]” value was found to be 7.06 nM. Besides, in [3], the “IC50 on human MMP-9 activity (fluorogenic substrate, 10 µM)” value turned out to be 4.3 nM. The Ki in [4] is 0.3 nM. In addition, the “residual enzyme activity in the presence of 1 µM antibody, 10 µM fluorogenic peptide substrate (unit not given)” value (from here on “residual enzyme activity … (unit not given)”) in assay [5] was 4. Further, in assay [6], the “a (intercept) of the linear fit of IC50 (nM) against M-2350 substrate concentration (µM); unit taken from the IC50 axis” value was found to be 0.586 nM and the “b (gradient) of the linear fit of IC50 (nM) against M-2350 substrate concentration (µM); unit not given” value stood at 0.39.

B3: 539A-M0166-F10 Fab (Fab, V domains shown)
VH: B1 VH
VL: B1 VL
As for B3, the “IC50 on human MMP-9 activity (fluorogenic substrate, 10 µM)” value in [3] is around 33 nM. The “residual enzyme activity … (unit not given)” value in [7] was determined as 93; in assay [8] it was 90; in assay [9], 115; in assay [5], 8; in [10], 102; in assay [11] it was 94. The “residual enzyme activity … (unit not given)” value in [12] was 100; in [13], 113; in assay [14], 82; in assay [15], 126; in assay [16], 106; in [17], 104.
